# Data from article PMC10801562 (Antibodies, 2024).
# Changes are numbered by the printed parent chain.
# T1: recombinant human CD3ε-CD3δ heterodimeric protein (CD3εδ) (Homo sapiens)
# T1 construct: human CD3ε of the recombinant CD3εδ heterodimer; human CD3δ of the recombinant CD3εδ heterodimer; source: in-house prepared
# T1 chain 1: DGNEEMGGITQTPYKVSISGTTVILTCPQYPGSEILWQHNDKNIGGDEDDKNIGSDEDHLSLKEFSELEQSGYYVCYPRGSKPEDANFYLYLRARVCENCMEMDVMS
# T1 chain 2: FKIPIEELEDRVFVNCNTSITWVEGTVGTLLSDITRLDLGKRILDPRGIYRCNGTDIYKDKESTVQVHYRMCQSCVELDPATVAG
# B1: m12F6 mIgG2a, homodimeric antibody without FAST-Ig mutations (antibody, V domains shown)
# VH: QVQLQQSGAELARPGASVKMSCKASGYTFTSYTMHWVKQRPGQGLEWIGYINPSSGYTKYNQKFKDKATLTADKSSSTAYMQLSSLTSEDSAVYYCARWQDYDVYFDYWGQGTTLTVSS
# VL: QIVLSQSPAILSASPGEKVTMTCRASSSVSYMHWYQQKPGSSPKPWIYATSNLASGVPARFSGSGSGTSYSLTISRVEAEDAATYYCQQWSSNPPTFGGGTKLETK
# notes: VH of the original mouse antibody m12F6; mouse IgG2a (mIgG2a) heavy chain constant region; numbers count on: Eu numbering; VL of the original mouse antibody m12F6; mouse kappa light chain constant region (CL); Whole IgG of one HC and one LC; also called anti-CD3; H2L2H2L2; source: Expi293F, transiently expressed, purified (Ab-Capcher MAG2, MonoSpin ProA or MonoSpin ProG); copies: 2 + 2
# B2: m12F6 mIgG2a V1+C19, homodimeric antibody with FAST-Ig V1+C19 mutations (antibody, V domains shown)
# VH: B1 VH with Q39E
# VL: B1 VL with Q37K
# notes: VH of m12F6; mouse IgG2a (mIgG2a) heavy chain constant region; numbers count on: Eu numbering; VL of m12F6; mouse kappa light chain constant region (CL); numbers count on: Kabat numbering; Whole IgG of one HC and one LC; also called anti-CD3; H2L2H2L2; source: Expi293F, transiently expressed, purified (Ab-Capcher MAG2, MonoSpin ProA or MonoSpin ProG); copies: 2 + 2
# B3: m12F6 mIgG1, homodimeric antibody without FAST-Ig mutations (antibody, V domains shown)
# VH: B1 VH
# VL: B1 VL
# notes: VH of the original mouse antibody m12F6; mouse IgG1 (mIgG1) heavy chain constant region; numbers count on: Eu numbering; VL of the original mouse antibody m12F6; mouse kappa light chain constant region (CL); Whole IgG of one HC and one LC; also called anti-CD3; H2L2H2L2; source: Expi293F, transiently expressed, purified (Ab-Capcher MAG2 or MonoSpin ProG); copies: 2 + 2
# B4: m2C4 mIgG2a, homodimeric antibody without FAST-Ig mutations (antibody, V domains shown)
# VH: EVQLQQSGPELVKPGTSVKISCKASGFTFTDYTMDWVKQSHGKSLEWIGDVNPNSGGSIYNQRFKGKASLTVDRSSRIVYMELRSLTFEDTAVYYCARNLGPSFYFDYWGQGTTLTVSS
# VL: DTVMTQSHKIMSTSVGDRVSITCKASQDVSIGVAWYQQRPGQSPKLLIYSASYRYTGVPDRFTGSGSGTDFTFTISSVQAEDLAVYYCQQYYIYPYTFGGGTKLEIK
# notes: VH of the original mouse antibody m2C4; mouse IgG2a (mIgG2a) heavy chain constant region; numbers count on: Eu numbering; VL of the original mouse antibody m2C4; mouse kappa light chain constant region (CL); Whole IgG of one HC and one LC; also called anti-HER2; H1L1H1L1; source: Expi293F, transiently expressed, purified (Ab-Capcher MAG2, MonoSpin ProA or MonoSpin ProG); copies: 2 + 2
# B5: m2C4 mIgG1 V1+C19, homodimeric antibody with FAST-Ig V1+C19 mutations (antibody, V domains shown)
# VH: B4 VH with Q39K
# VL: B4 VL with Q38E
# notes: VH of m2C4; mouse IgG1 (mIgG1) heavy chain constant region; K147 kept; numbers count on: Eu numbering; VL of m2C4; mouse kappa light chain constant region (CL); numbers count on: Kabat numbering; Whole IgG of one HC and one LC; also called anti-HER2; H1L1H1L1; source: Expi293F, transiently expressed, purified (Ab-Capcher MAG2 or MonoSpin ProG); copies: 2 + 2
# B6: m2C4 mIgG2a V1+C19, homodimeric antibody with FAST-Ig V1+C19 mutations (antibody, V domains shown)
# VH: B4 VH with Q39K
# VL: B4 VL with Q38E
# notes: VH of m2C4; mouse IgG2a (mIgG2a) heavy chain constant region; K147 kept; numbers count on: Eu numbering; VL of m2C4; mouse kappa light chain constant region (CL); numbers count on: Kabat numbering; Whole IgG of one HC and one LC; also called anti-HER2; H1L1H1L1; source: Expi293F, transiently expressed, purified (Ab-Capcher MAG2, MonoSpin ProA or MonoSpin ProG); copies: 2 + 2
# B7: m2C4 mIgG1, homodimeric antibody without FAST-Ig mutations (antibody, V domains shown)
# VH: B4 VH
# VL: B4 VL
# notes: VH of the original mouse antibody m2C4; mouse IgG1 (mIgG1) heavy chain constant region; numbers count on: Eu numbering; VL of the original mouse antibody m2C4; mouse kappa light chain constant region (CL); Whole IgG of one HC and one LC; also called anti-HER2; H1L1H1L1; source: Expi293F, transiently expressed, purified (Ab-Capcher MAG2 or MonoSpin ProG); copies: 2 + 2
# B8: m4D5 mIgG1, homodimeric antibody without FAST-Ig mutations (antibody, V domains shown)
# VH: QVQLQQSGPELVKPGASLKLSCTASGFNIKDTYIHWVKQRPEQGLEWIGRIYPTNGYTRYDPKFQDKATITADTSSNTAYLQVSRLTSEDTAVYYCSRWGGDGFYAMDYWGQGASVTVSS
# VL: DIVMTQSHKFMSTSVGDRVSITCKASQDVNTAVAWYQQKPGHSPKLLIYSASFRYTGVPDRFTGSRSGTDFTFTISSVQAEDLAVYYCQQHYTTPPTFGGGTKVEIK
# notes: VH of the original mouse antibody m4D5; mouse IgG1 (mIgG1) heavy chain constant region; numbers count on: Eu numbering; VL of m4D5; mouse kappa light chain constant region (CL); Whole IgG of one HC and one LC; also called anti-HER2; H1L1H1L1; source: Expi293F, transiently expressed, purified (Ab-Capcher MAG2 or MonoSpin ProG); copies: 2 + 2
# B9: m4D5 mIgG2a, homodimeric antibody without FAST-Ig mutations (antibody, V domains shown)
# VH: B8 VH
# VL: B8 VL
# notes: VH of the original mouse antibody m4D5; mouse IgG2a (mIgG2a) heavy chain constant region; numbers count on: Eu numbering; VL of m4D5; mouse kappa light chain constant region (CL); Whole IgG of one HC and one LC; also called anti-HER2; H1L1H1L1; source: Expi293F, transiently expressed, purified (Ab-Capcher MAG2, MonoSpin ProA or MonoSpin ProG); copies: 2 + 2
# B10: m4D5 mIgG1 V1+C19, homodimeric antibody with FAST-Ig V1+C19 mutations (antibody, V domains shown)
# VH: B8 VH with Q39K
# VL: B8 VL with Q38E
# notes: VH of m4D5; mouse IgG1 (mIgG1) heavy chain constant region; K147 kept; numbers count on: Eu numbering; VL of m4D5; mouse kappa light chain constant region (CL); numbers count on: Kabat numbering; Whole IgG of one HC and one LC; also called anti-HER2; H1L1H1L1; source: Expi293F, transiently expressed, purified (Ab-Capcher MAG2 or MonoSpin ProG); copies: 2 + 2
# B11: m4D5 mIgG2a V1+C19, homodimeric antibody with FAST-Ig V1+C19 mutations (antibody, V domains shown)
# VH: B8 VH with Q39K
# VL: B8 VL with Q38E
# notes: VH of m4D5; mouse IgG2a (mIgG2a) heavy chain constant region; K147 kept; numbers count on: Eu numbering; VL of m4D5; mouse kappa light chain constant region (CL); numbers count on: Kabat numbering; Whole IgG of one HC and one LC; also called anti-HER2; H1L1H1L1; source: Expi293F, transiently expressed, purified (Ab-Capcher MAG2, MonoSpin ProA or MonoSpin ProG); copies: 2 + 2
# Biological target: T1, recombinant human CD3ε-CD3δ …
# Test: SPR; Biacore T200, 37 °C, pH 7.4, PB-P+; antibody captured (630 RU) by anti-mouse IgG (Fc) antibody on a CM4 chip; human CD3εδ as analyte, 18.8-19,200 nmol/L (mHIT3a, mOKT3) or 75-76,800 nmol/L (m12F6); steady state model
# Conditions: both partners purified
row,Kd,Binder
1,16700 nM,B1
2,16400 nM,B2
3,16800 nM,B3

# Biological target: T2, recombinant human HER2 (Sino Biological, 10004-H08H) (Homo sapiens, UniProt P04626)
# T2 construct: human epidermal growth factor receptor 2 (HER2), recombinant; also called human epidermal growth factor receptor 2; source: bought: Sino Biological
# Test: SPR; Biacore T200, 37 °C, pH 7.4, PB-P+ (0.05 mol/L Na-phosphate, 0.15 mol/L NaCl, 0.05% P-20); antibody captured (200 RU) by anti-mouse IgG (Fc) antibody on a CM4 chip; human HER2 as analyte, 6.3-100 nmol/L; 1:1 binding model
# Conditions: both partners purified
row,Kd,Binder
1,1.08 nM,B4
2,0.784 nM,B5
3,1.36 nM,B6
4,0.759 nM,B7
5,1.03 nM,B8
6,1.14 nM,B9
7,1.27 nM,B10
8,0.96 nM,B11
